Laboratory results published in patent publication US20120172293A1 (Takeda / Millennium, published 2012).
Starred links: 1 amine or outer side, 2 acyl side, 3 side chain; linkers in the order of their positions; H or OH if unused. Non-standard residues stand in square brackets, D forms with d. *: point of attachment. Lys(Me2) = CN(C)CCCC[C@H](N)C(=O)O; tBuAla = CC(C)(C)C[C@H](N)C(=O)O; 4Pal = N[C@@H](Cc1ccncc1)C(=O)O; Cha = N[C@@H](CC1CCCCC1)C(=O)O; d(αMeP) = C[C@]1(C(=O)O)CCCN1; Suc = O=C(CCC(=O)[*:2])[*:1]; dIva = CC[C@@](C)(N)C(=O)O; Isobutyryl = CC(C)C(=O)*; Iva = CC[C@](C)(N)C(=O)O; Nle = CCCC[C@H](N)C(=O)O; Dab = NCC[C@H](N)C(=O)O; Aib = CC(C)(N)C(=O)O; Ahx = NCCCCCC(=O)O; GABA = NCCCC(=O)O

Tests used:
[1] = target: human Y2 receptor (human) (UniProt P49146); assay: cell-based or functional assay
Chain of human Y2 receptor (human) (P49146 whole entry): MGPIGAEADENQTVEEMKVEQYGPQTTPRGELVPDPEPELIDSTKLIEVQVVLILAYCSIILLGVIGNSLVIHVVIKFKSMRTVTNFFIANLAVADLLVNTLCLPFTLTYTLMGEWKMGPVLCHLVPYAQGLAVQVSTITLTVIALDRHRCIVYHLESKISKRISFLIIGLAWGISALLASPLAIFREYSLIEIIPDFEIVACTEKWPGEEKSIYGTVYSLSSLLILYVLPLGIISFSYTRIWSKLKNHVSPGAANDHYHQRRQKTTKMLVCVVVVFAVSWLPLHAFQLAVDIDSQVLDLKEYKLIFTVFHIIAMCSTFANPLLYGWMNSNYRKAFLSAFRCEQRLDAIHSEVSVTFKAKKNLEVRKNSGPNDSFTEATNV

[2] = target: human Y2 receptor (human) (UniProt P49146); assay: RBA: [125I]-PYY displacement, hY2R/CHO membranes

Row | GBA EC50 Ratio (vs PYY(3-36)), [35S]GTPγS [1] | IC50 Ratio (vs PYY(3-36)) [2] | Binder
1 | 3.7 | 4.5 | Ac-S[dP][Iva]H[Cha][Cha]NL[Aib]TRQR[Cha]-NH2 (SMILES CC[C@](C)(NC(=O)[C@H]1CCCN1C(=O)[C@H](CO)NC(C)=O)C(=O)N[C@@H](Cc1c[nH]cn1)C(=O)N[C@@H](CC1CCCCC1)C(=O)N[C@@H](CC1CCCCC1)C(=O)N[C@@H](CC(N)=O)C(=O)N[C@@H](CC(C)C)C(=O)NC(C)(C)C(=O)N[C@H](C(=O)N[C@@H](CCCNC(=N)N)C(=O)N[C@@H](CCC(N)=O)C(=O)N[C@@H](CCCNC(=N)N)C(=O)N[C@@H](CC1CCCCC1)C(N)=O)[C@@H](C)O) [Ac-[D-Pro24, Iva25, Cha27,28,36, Aib31]-PYY(23-36)]
2 | 37 | 71 | Ac-S[dP]RH[Cha][Cha][dIva]L[Aib]TRQR[Cha]-NH2 (SMILES CC[C@@](C)(NC(=O)[C@H](CC1CCCCC1)NC(=O)[C@H](CC1CCCCC1)NC(=O)[C@H](Cc1c[nH]cn1)NC(=O)[C@H](CCCNC(=N)N)NC(=O)[C@H]1CCCN1C(=O)[C@H](CO)NC(C)=O)C(=O)N[C@@H](CC(C)C)C(=O)NC(C)(C)C(=O)N[C@H](C(=O)N[C@@H](CCCNC(=N)N)C(=O)N[C@@H](CCC(N)=O)C(=O)N[C@@H](CCCNC(=N)N)C(=O)N[C@@H](CC1CCCCC1)C(N)=O)[C@@H](C)O) [Ac-[D-Pro24, Cha27,28,36, D-Iva29, Aib31]-PYY(23-36)]
3 | 2.4 | 3.3 | Piperidinocarbonyl-E[dP]R[4Pal][Cha][Aib]NK[Aib]TRQR[Cha]-NH2 [Piperidinocarbonyl-[Glu23, D-Pro24, Pya(4)26, Cha27,36, Aib28,31, Lys30]-PYY(23-36)]
4 | 1.6 | 2.6 | Ac-S[dP]RH[Cha][Cha]N[Dab][Aib]TRQR[Cha]-NH2 (SMILES CC(=O)N[C@@H](CO)C(=O)N1CCC[C@@H]1C(=O)N[C@@H](CCCNC(=N)N)C(=O)N[C@@H](Cc1c[nH]cn1)C(=O)N[C@@H](CC1CCCCC1)C(=O)N[C@@H](CC1CCCCC1)C(=O)N[C@@H](CC(N)=O)C(=O)N[C@@H](CCN)C(=O)NC(C)(C)C(=O)N[C@H](C(=O)N[C@@H](CCCNC(=N)N)C(=O)N[C@@H](CCC(N)=O)C(=O)N[C@@H](CCCNC(=N)N)C(=O)N[C@@H](CC1CCCCC1)C(N)=O)[C@@H](C)O) [Ac-[D-Pro24, Cha27,28,36, Dab30, Aib31]-PYY(23-36)]
5 | 11 | 14 | Ac-S[dP][dIva]H[Cha][Cha]NL[Aib]TRQR[Cha]-NH2 (SMILES CC[C@@](C)(NC(=O)[C@H]1CCCN1C(=O)[C@H](CO)NC(C)=O)C(=O)N[C@@H](Cc1c[nH]cn1)C(=O)N[C@@H](CC1CCCCC1)C(=O)N[C@@H](CC1CCCCC1)C(=O)N[C@@H](CC(N)=O)C(=O)N[C@@H](CC(C)C)C(=O)NC(C)(C)C(=O)N[C@H](C(=O)N[C@@H](CCCNC(=N)N)C(=O)N[C@@H](CCC(N)=O)C(=O)N[C@@H](CCCNC(=N)N)C(=O)N[C@@H](CC1CCCCC1)C(N)=O)[C@@H](C)O) [Ac-[D-Pro24, D-Iva25, Cha27,28,36, Aib31]-PYY(23-36)]
6 | 2.6 | 4.5 | Ac-S[d(αMeP)]RH[Cha][Cha]NL[Aib]TRQR[Cha]-NH2 (SMILES CC(=O)N[C@@H](CO)C(=O)N1CCC[C@]1(C)C(=O)N[C@@H](CCCNC(=N)N)C(=O)N[C@@H](Cc1c[nH]cn1)C(=O)N[C@@H](CC1CCCCC1)C(=O)N[C@@H](CC1CCCCC1)C(=O)N[C@@H](CC(N)=O)C(=O)N[C@@H](CC(C)C)C(=O)NC(C)(C)C(=O)N[C@H](C(=O)N[C@@H](CCCNC(=N)N)C(=O)N[C@@H](CCC(N)=O)C(=O)N[C@@H](CCCNC(=N)N)C(=O)N[C@@H](CC1CCCCC1)C(N)=O)[C@@H](C)O) [Ac-[D-αMePro24, Cha27,28,36, Aib31]-PYY(23-36)]
7 | 13 | 19 | Ac-S[dP]R[dIva][Cha][Cha]NL[Aib]TRQR[Cha]-NH2 (SMILES CC[C@@](C)(NC(=O)[C@H](CCCNC(=N)N)NC(=O)[C@H]1CCCN1C(=O)[C@H](CO)NC(C)=O)C(=O)N[C@@H](CC1CCCCC1)C(=O)N[C@@H](CC1CCCCC1)C(=O)N[C@@H](CC(N)=O)C(=O)N[C@@H](CC(C)C)C(=O)NC(C)(C)C(=O)N[C@H](C(=O)N[C@@H](CCCNC(=N)N)C(=O)N[C@@H](CCC(N)=O)C(=O)N[C@@H](CCCNC(=N)N)C(=O)N[C@@H](CC1CCCCC1)C(N)=O)[C@@H](C)O) [Ac-[D-Pro24, D-Iva26, Cha27,28,36, Aib31]-PYY(23-36)]
8 | 0.88 | 0.43 | Isobutyryl-E[dP]R[4Pal][Cha][tBuAla]NK[Aib]TRQR[Cha]-NH2 (SMILES CC(C)C(=O)N[C@@H](CCC(=O)O)C(=O)N1CCC[C@@H]1C(=O)N[C@@H](CCCNC(=N)N)C(=O)N[C@@H](Cc1ccncc1)C(=O)N[C@@H](CC1CCCCC1)C(=O)N[C@@H](CC(C)(C)C)C(=O)N[C@@H](CC(N)=O)C(=O)N[C@@H](CCCCN)C(=O)NC(C)(C)C(=O)N[C@H](C(=O)N[C@@H](CCCNC(=N)N)C(=O)N[C@@H](CCC(N)=O)C(=O)N[C@@H](CCCNC(=N)N)C(=O)N[C@@H](CC1CCCCC1)C(N)=O)[C@@H](C)O) [Isobutanoyl-[Glu23, D-Pro24, Pya(4)26, Cha27,36, Leu(Me)28, Lys30, Aib31]-PYY(23-36)]
9 | 0.86 | 0.48 | Ac-E[dP]R[4Pal][Cha][tBuAla]NK[Aib]TRQR[Cha]-NH2 (SMILES CC(=O)N[C@@H](CCC(=O)O)C(=O)N1CCC[C@@H]1C(=O)N[C@@H](CCCNC(=N)N)C(=O)N[C@@H](Cc1ccncc1)C(=O)N[C@@H](CC1CCCCC1)C(=O)N[C@@H](CC(C)(C)C)C(=O)N[C@@H](CC(N)=O)C(=O)N[C@@H](CCCCN)C(=O)NC(C)(C)C(=O)N[C@H](C(=O)N[C@@H](CCCNC(=N)N)C(=O)N[C@@H](CCC(N)=O)C(=O)N[C@@H](CCCNC(=N)N)C(=O)N[C@@H](CC1CCCCC1)C(N)=O)[C@@H](C)O) [Ac-[Glu23, D-Pro24, Pya(4)26, Cha27,36, Leu(Me)28, Lys30, Aib31]-PYY(23-36)]
10 | 1.1 | 1.7 | Ac-[Ahx]E[dP]RH[Cha][Cha]NK[Aib]TRQR[Cha]-NH2 (SMILES CC(=O)NCCCCCC(=O)N[C@@H](CCC(=O)O)C(=O)N1CCC[C@@H]1C(=O)N[C@@H](CCCNC(=N)N)C(=O)N[C@@H](Cc1c[nH]cn1)C(=O)N[C@@H](CC1CCCCC1)C(=O)N[C@@H](CC1CCCCC1)C(=O)N[C@@H](CC(N)=O)C(=O)N[C@@H](CCCCN)C(=O)NC(C)(C)C(=O)N[C@H](C(=O)N[C@@H](CCCNC(=N)N)C(=O)N[C@@H](CCC(N)=O)C(=O)N[C@@H](CCCNC(=N)N)C(=O)N[C@@H](CC1CCCCC1)C(N)=O)[C@@H](C)O) [Ac-[Acp22, Glu23, D-Pro24, Cha27,28,36, Lys30, Aib31]-PYY(22-36)]
11 | 4.2 | 5.2 | Ac-S[dP]R[Iva][Cha][Cha]NL[Aib]TRQR[Cha]-NH2 (SMILES CC[C@](C)(NC(=O)[C@H](CCCNC(=N)N)NC(=O)[C@H]1CCCN1C(=O)[C@H](CO)NC(C)=O)C(=O)N[C@@H](CC1CCCCC1)C(=O)N[C@@H](CC1CCCCC1)C(=O)N[C@@H](CC(N)=O)C(=O)N[C@@H](CC(C)C)C(=O)NC(C)(C)C(=O)N[C@H](C(=O)N[C@@H](CCCNC(=N)N)C(=O)N[C@@H](CCC(N)=O)C(=O)N[C@@H](CCCNC(=N)N)C(=O)N[C@@H](CC1CCCCC1)C(N)=O)[C@@H](C)O) [Ac-[D-Pro24, Iva26, Cha27,28,36, Aib31]-PYY(23-36)]
12 | 1.2 | 1.7 | Suc-[Ahx]S[dP]RH[Cha][tBuAla]NK[Aib]TRQR[Cha]-NH2 (SMILES C[C@@H](O)[C@H](NC(=O)C(C)(C)NC(=O)[C@H](CCCCN)NC(=O)[C@H](CC(N)=O)NC(=O)[C@H](CC(C)(C)C)NC(=O)[C@H](CC1CCCCC1)NC(=O)[C@H](Cc1c[nH]cn1)NC(=O)[C@H](CCCNC(=N)N)NC(=O)[C@H]1CCCN1C(=O)[C@H](CO)NC(=O)CCCCCNC(=O)CCC(=O)O)C(=O)N[C@@H](CCCNC(=N)N)C(=O)N[C@@H](CCC(N)=O)C(=O)N[C@@H](CCCNC(=N)N)C(=O)N[C@@H](CC1CCCCC1)C(N)=O) [3-Carboxypropionyl-[Acp22, D-Pro24, Cha27,36, Leu(Me)28, Lys30, Aib31]-PYY(22-36)]
13 | 3 | 5.8 | Ac-S[GABA]RH[Cha][Cha]NL[Aib]TRQR[Cha]-NH2 (SMILES CC(=O)N[C@@H](CO)C(=O)NCCCC(=O)N[C@@H](CCCNC(=N)N)C(=O)N[C@@H](Cc1c[nH]cn1)C(=O)N[C@@H](CC1CCCCC1)C(=O)N[C@@H](CC1CCCCC1)C(=O)N[C@@H](CC(N)=O)C(=O)N[C@@H](CC(C)C)C(=O)NC(C)(C)C(=O)N[C@H](C(=O)N[C@@H](CCCNC(=N)N)C(=O)N[C@@H](CCC(N)=O)C(=O)N[C@@H](CCCNC(=N)N)C(=O)N[C@@H](CC1CCCCC1)C(N)=O)[C@@H](C)O) [Ac-[GABA24, Cha27,28,36, Aib31]-PYY(23-36)]
14 | 1.3 | 2.3 | Ac-E[dP][Nle][4Pal][Cha][Cha]NK[Aib]TRQR[Cha]-NH2 (SMILES CCCC[C@H](NC(=O)[C@H]1CCCN1C(=O)[C@H](CCC(=O)O)NC(C)=O)C(=O)N[C@@H](Cc1ccncc1)C(=O)N[C@@H](CC1CCCCC1)C(=O)N[C@@H](CC1CCCCC1)C(=O)N[C@@H](CC(N)=O)C(=O)N[C@@H](CCCCN)C(=O)NC(C)(C)C(=O)N[C@H](C(=O)N[C@@H](CCCNC(=N)N)C(=O)N[C@@H](CCC(N)=O)C(=O)N[C@@H](CCCNC(=N)N)C(=O)N[C@@H](CC1CCCCC1)C(N)=O)[C@@H](C)O) [Ac-[Glu23, D-Pro24, Nle25, Pya(4)26, Cha27,28,36, Lys30, Aib31]-PYY(23-36)]
15 | 0.7 | 0.8 | Ac-S[dP]RH[Cha][Cha]N[Lys(Me2)][Aib]TRQR[Cha]-NH2 (SMILES CC(=O)N[C@@H](CO)C(=O)N1CCC[C@@H]1C(=O)N[C@@H](CCCNC(=N)N)C(=O)N[C@@H](Cc1c[nH]cn1)C(=O)N[C@@H](CC1CCCCC1)C(=O)N[C@@H](CC1CCCCC1)C(=O)N[C@@H](CC(N)=O)C(=O)N[C@@H](CCCCN(C)C)C(=O)NC(C)(C)C(=O)N[C@H](C(=O)N[C@@H](CCCNC(=N)N)C(=O)N[C@@H](CCC(N)=O)C(=O)N[C@@H](CCCNC(=N)N)C(=O)N[C@@H](CC1CCCCC1)C(N)=O)[C@@H](C)O) [Ac-[D-Pro24, Cha27,28,36, Lys(Me2)30, Aib31]-PYY(23-36)]
